Experimental data as given in patent publication US20210395372A1 (published 2021).

T1: human Met-Fc chimera (human, UniProt P08581 25-932)
T1 chain: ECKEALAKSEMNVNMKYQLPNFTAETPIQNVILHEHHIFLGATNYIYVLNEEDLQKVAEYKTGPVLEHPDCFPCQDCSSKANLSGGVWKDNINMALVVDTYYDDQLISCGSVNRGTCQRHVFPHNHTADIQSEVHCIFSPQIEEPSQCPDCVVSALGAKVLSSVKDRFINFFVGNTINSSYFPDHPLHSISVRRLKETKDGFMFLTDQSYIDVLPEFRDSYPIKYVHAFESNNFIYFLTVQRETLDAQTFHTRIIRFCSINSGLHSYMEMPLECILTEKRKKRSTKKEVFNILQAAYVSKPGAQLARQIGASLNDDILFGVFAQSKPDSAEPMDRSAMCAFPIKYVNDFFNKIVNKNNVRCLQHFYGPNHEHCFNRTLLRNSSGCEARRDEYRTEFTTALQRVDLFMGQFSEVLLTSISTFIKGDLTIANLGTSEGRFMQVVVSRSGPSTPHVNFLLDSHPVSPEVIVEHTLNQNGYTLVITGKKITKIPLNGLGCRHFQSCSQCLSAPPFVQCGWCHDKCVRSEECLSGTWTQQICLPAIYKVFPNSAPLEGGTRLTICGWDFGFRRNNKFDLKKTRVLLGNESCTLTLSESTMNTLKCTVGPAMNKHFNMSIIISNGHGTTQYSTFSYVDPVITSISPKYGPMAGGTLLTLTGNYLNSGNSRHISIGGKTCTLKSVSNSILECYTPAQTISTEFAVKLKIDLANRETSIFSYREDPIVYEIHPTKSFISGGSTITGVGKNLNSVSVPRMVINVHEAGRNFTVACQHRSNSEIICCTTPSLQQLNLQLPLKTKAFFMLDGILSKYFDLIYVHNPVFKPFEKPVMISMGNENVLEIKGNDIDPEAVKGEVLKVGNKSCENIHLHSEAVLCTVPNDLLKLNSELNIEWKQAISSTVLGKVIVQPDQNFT


Target: T1, human Met-Fc chimera
Experiment: ELISA

Row | Kd [nM] | Binder
1 | 0.686 | hOA-DN30-cl04H08 (antibody) light: DIVLTQSPASLAVSLGERATINCKASQSVDYDGGSYMSWYQQRPGQPPKLLIYAASNLESGVPDRFSGSGSGTDFTLTIHSLQAEDVATYYCQQSYEDPLTFGGGTKVEIKRTVAAPSVFIFPPSDEQLKSGTASVVCLLNNFYPREAKVQWKVDNALQSGNSQESVTEQDSKDSTYSLSSTLTLSKADYEKHKVYACEVTHQGLSSPVTKSFNRGEC heavy: not shown not shown
2 | 0.21 | MvDN30 (Fab, V domains shown) VH: QVQLQQPGTELVKPGASVKLSCKASGYTFTSYWIHWVKQRPGQGLEWIGEINPSSGRTNYNEKFKNKVTVTVDKSSTTAYMQLSNLTSEDSAVYYCASRGYWGQGTTLTVSS VL: DIVLTQSPASLAVSLGQRATISCKASQSVDYDGGSYMSWFQQRPGQPPKLLISAASNLESGIPARFSGSGSGTDFTLNIHPVEEEDVATYYCQQSYEDPLTFGAGTKVEIK
